Measured values from patent US20230303666A1 (published 2023).

Biological target: recombinant RBD (ThermoFisher, RP-87678) (SARS-CoV-2, UniProt P0DTC2 319-541)

B1: SR6v15 with GST tag (VHH, not shown: a dimerising Fc or GST)
VHH: EVQLVESGGGLVQAGDSLRLSCAASGDSYILWRMGWFRQAPGKEREFVAAISLDGQFTNYADSVRGRFSISADSAKYTVYLQMNSLKPEDTAVYYCAALPFLDYWGQGTQVTVSS
- Kd: 2.18 nM
